Results from PMC2132943.

Biological target: T1, CXCR4 receptor (human (endogenous in HEK-293)), P61073
T1 chain: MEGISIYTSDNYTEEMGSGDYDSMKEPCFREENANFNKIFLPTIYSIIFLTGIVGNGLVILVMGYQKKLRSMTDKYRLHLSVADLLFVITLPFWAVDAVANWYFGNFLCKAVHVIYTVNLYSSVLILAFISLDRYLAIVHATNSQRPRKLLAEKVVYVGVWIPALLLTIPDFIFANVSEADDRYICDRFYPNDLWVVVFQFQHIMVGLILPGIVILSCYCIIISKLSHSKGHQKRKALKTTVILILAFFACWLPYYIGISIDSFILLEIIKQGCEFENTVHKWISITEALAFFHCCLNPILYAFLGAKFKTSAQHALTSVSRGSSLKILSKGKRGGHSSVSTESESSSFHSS
Assay: cross-linking
Details: remark: other sources report otherwise

B1: CXCR4 receptor, P61073 1-352 (receptor)
chain: MEGISIYTSDNYTEEMGSGDYDSMKEPCFREENANFNKIFLPTIYSIIFLTGIVGNGLVILVMGYQKKLRSMTDKYRLHLSVADLLFVITLPFWAVDAVANWYFGNFLCKAVHVIYTVNLYSSVLILAFISLDRYLAIVHATNSQRPRKLLAEKVVYVGVWIPALLLTIPDFIFANVSEADDRYICDRFYPNDLWVVVFQFQHIMVGLILPGIVILSCYCIIISKLSHSKGHQKRKALKTTVILILAFFACWLPYYIGISIDSFILLEIIKQGCEFENTVHKWISITEALAFFHCCLNPILYAFLGAKFKTSAQHALTSVSRGSSLKILSKGKRGGHSSVSTESESSSFHSS
stoichiometry N: 2
